Reference: the supplement of paper PMC10126150
± gives the standard deviation of the averaged measurements.

Test system: ATP
Experiment: switch fluorescence ratio, 500 uM ATP over buffer (Cy3 cluster intensity, sum of 5 cycles each) (fold (ratio)); higher = stronger signal-on switching upon ATP binding; sequences stand for … in TCGTCGGCAGCGTCAGATGTGTATAAGAGACAGTTTTTTTTTTTTTTTTTTTTTTTTT…TC
Details: aptamer strand: ATP DNA aptamer (quencher-CACCTGGGGGAGTATTGCGGAGGAAGG + anchor), 100 nM annealed; ATP concentration: 500 uM
Summary of the method: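 Values give the fluorescence ratio for each switch-domain sequence, averaged from per-cluster ratios of summed target-cycle to summed buffer-cycle Cy3 intensity. The Cy3-labelled switching-strand clusters sat on a modified Illumina MiSeq flow-cell, were annealed to 100 nM quencher-labelled ATP aptamer, and were imaged in selection buffer, then after 15 min with 500 uM ATP at 22 °C. Five cycles ran with NaOH stripping and re-annealing between them, and clusters outside 100-1000 RFU were excluded.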
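Further: ATP exposure 15 min at 22 °C before imaging.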

Row | Sequence | switch fluorescence ratio
1 | GCTGGGGTAT | 0.984 ± 0.015
2 | GCTGGGGTGG | 1.01 ± 0.05
3 | GCTGGTAATG | 1.01 ± 0.021
4 | GCTGGTTTGG | 0.972 ± 0.052
5 | GCTGGTTTGT | 0.989 ± 0.013
6 | GCTGTAAAAA | 1.08 ± 0.063
7 | GCTGTAAATT | 0.982 ± 0.019
8 | GCTGTAATAT | 1.11 ± 0.015
9 | GCTGTAGCGC | 1.06 ± 0.035
10 | GCTGTAGGAT | 0.984 ± 0.017
11 | GCTGTAGGTC | 1.04 ± 0.013
12 | GCTGTTAATG | 0.984 ± 0.006
13 | GCTGTTTGAT | 0.959 ± 0.04
14 | GCTGTTTGCT | 1.01 ± 0.034
15 | GCTGTTTTGG | 0.965 ± 0.027
16 | GCTGTTTTTA | 0.981 ± 0.022
17 | GCTTAAATTT | 1 ± 0.016
18 | GCTTACGGTG | 1.01 ± 0.02
19 | GCTTAGTGTC | 0.975 ± 0.043
20 | GCTTATAATG | 0.997 ± 0.031
21 | GCTTATACGA | 1.55 ± 0.012
22 | GCTTATCTAA | 0.997 ± 0.016

Row | Sequence | switch fluorescence ratio
23 | GCTTATGCGG | 0.949 ± 0.014
24 | GCTTATGTAC | 1.16 ± 0.019
25 | GCTTCAGGGA | 1.02 ± 0.019
26 | GCTTCAGGTC | 1.05 ± 0.074
27 | GCTTCCTAAG | 1.139 ± 0.0072
28 | GCTTCCTCTA | 1.74 ± 1
29 | GCTTCGGAGG | 1.015 ± 0.0024
30 | GCTTCGGAGT | 1.059 ± 0.01
31 | GCTTCGGATC | 1.22 ± 0.038
32 | GCTTCTCTTA | 0.974 ± 0.013
33 | GCTTCTGGGT | 0.996 ± 0.017
34 | GCTTCTTGTT | 1 ± 0.015
35 | GCTTCTTTGT | 0.9984 ± 0.0058
36 | GCTTGAGGAA | 0.982 ± 0.034
37 | GCTTGAGGTA | 1.02 ± 0.054
38 | GCTTGAGTTA | 0.9852 ± 0.0077
39 | GCTTGATCCA | 1.01 ± 0.018
40 | GCTTGCAAAG | 1.007 ± 0.0031
41 | GCTTGCAAGG | 0.991 ± 0.017
42 | GCTTGCATTT | 1.02 ± 0.035
43 | GCTTGGATGT | 1.0207 ± 0.00092
44 | GCTTGGGCAG | 1.02 ± 0.045

Row | Sequence | switch fluorescence ratio
45 | GCTTGGGGGA | 0.998 ± 0.041
46 | GCTTGGTCGT | 1.03 ± 0.024
47 | GCTTGTGATC | 1.01 ± 0.028
48 | GCTTTAAGGG | 0.995 ± 0.024
49 | GCTTTAATAA | 0.991 ± 0.077
50 | GCTTTACAGA | 1 ± 0.016
51 | GCTTTACTCA | 1.36 ± 0.049
52 | GCTTTAGGAT | 1.01 ± 0.04
53 | GCTTTAGTCA | 0.967 ± 0.034
54 | GCTTTATGTT | 0.9938 ± 0.0015
55 | GCTTTATTCC | 1.06 ± 0.018
56 | GCTTTGGCTT | 1 ± 0.03
57 | GCTTTGTATG | 0.9678 ± 0.0094
58 | GCTTTTAAAG | 1.04 ± 0.02
59 | GCTTTTATCA | 0.978 ± 0.01
60 | GCTTTTCAGC | 1.01 ± 0.038
61 | GCTTTTCGGG | 1.02 ± 0.02
62 | GCTTTTGAGG | 1.04 ± 0.012
63 | GCTTTTGGTG | 1.02 ± 0.032
64 | GCTTTTTATA | 1.02 ± 0.027
65 | GCTTTTTGCG | 1.01 ± 0.03
66 | GGAAAAAATG | 1 ± 0.048

Row | Sequence | switch fluorescence ratio
67 | GGAAAACTGG | 1.01 ± 0.0017
68 | GGAAAAGTTG | 0.9848 ± 0.0083
69 | GGAAAATAGT | 1.02 ± 0.047
70 | GGAAAATTCT | 1.01 ± 0.013
71 | GGAAACTCTC | 1 ± 0.015
72 | GGAAAGGGGG | 1.01 ± 0.064
73 | GGAAAGTACG | 1.16 ± 0.045
74 | GGAAATATTA | 1.04 ± 0.04
75 | GGAAATTGAG | 0.999 ± 0.021
76 | GGAACCGGGT | 1.029 ± 0.0086
77 | GGAAGAGGGG | 0.991 ± 0.016
78 | GGAAGAGGGT | 0.997 ± 0.052
79 | GGAAGATGTT | 0.985 ± 0.014
80 | GGAAGCGACA | 0.988 ± 0.037
81 | GGAAGGAGGG | 1 ± 0.033
82 | GGAAGGCATA | 0.9829 ± 0.0096
83 | GGAAGGCCTA | 0.954 ± 0.017
84 | GGAAGGGATT | 1.05 ± 0.08
85 | GGAAGGGCGG | 1.01 ± 0.048
